This note sets out measurements from US5795761A, “Mutants of 2,5-diketo-D-gluconic acid (2,5-DKG) reductase A” (Rutgers, The State University of New Jersey, priority 1996, dated 1998).

Common to all, as to type: biochemical, Corynebacterium sp. (ATCC 31090)
Substrate in data set [1]: O=C(O)C(=O)[C@@H](O)[C@H](O)C(=O)CO
As to the kind of experiment: Substrate kinetics of 2,5-DKG reduction (NADPH oxidation followed at 340 nm). The note with it: other: 50 mM tris pH 7.0, 0.2 mM NADPH, 2 to 14 mM substrate, 25° C. As to the method:
(§1) The preparations of wild-type and mutant Q192R 2,5-DKG reductase A enzymes were characterized kinetically as to their ability to reduce the substrate 2,5-DKG to 2-KLG. Assays were done in 1 ml total volume of 50 mM tris, pH 7.0, containing 0.2 mM NADPH, a constant amount of enzyme (15-20 μg) and amounts of substrate varying from 2 to 14 mM. The assays were done at 25° C., and the rate of substrate reduction was measured spectrophotometrically by measuring the loss of absorbance at 340 nm wavelength (which is indicative of the oxidation of the cofactor NADPH to NADP+).
The data were analyzed according to the well-known Michaelis equation to determine the kinetic parameters Vmax and Km using the Enzfit software package (Biosoft, Cambridge, UK) on a Epson desktop computer.

Substrate in data set [2]: NC(=O)C1=CN([C@@H]2O[C@H](COP(=O)(O)OP(=O)(O)OC[C@H]3O[C@@H](n4cnc5c(N)ncnc54)[C@H](OP(=O)(O)O)[C@@H]3O)[C@@H](O)[C@H]2O)C=CC1
As to the kind of experiment: Cofactor kinetics, constant 2,5-DKG and varying NADPH. The note with it: other: 50 mM bis-Tris pH 6.8, 10 mM 2,5-DKG, 2.5 to 200 μM NADPH. The protocol:
The cofactor affinity of DKG reductase A F22Y, Q192R, A272G, and F22Y/A272G was determined by analysis of a series of reactions with constant substrate concentration and varying concentrations of NADPH.
Each series of reactions consisted of 50 mM bis-Tris pH 6.8, 10 mM 2,5-DKG, from 2.5 to 200 μM NADPH, and enzyme in a total volume of 1.0 ml.
Initial rate data for the reactions were fitted to the Michaelis-Menten equation by non-linear regression analysis as previously described to determine KM,NADPH.

Substrate in data set [3]: O=C(O)C(=O)[C@@H](O)[C@H](O)C(=O)CO
As to the kind of experiment: Substrate kinetics of 2,5-DKG reduction, 200 μM NADPH, substrate 0 to 30 mM. The note with it: other: 200 μM NADPH, 0 to 30 mM 2,5-DKG; pH 7.0; 25.0 °C. As to the method:
as §1
A crude kinetic characterization of 2,5-DKG Reductase A mutants D278A, V277A, E276A, D275A, P274A, H273A, A272G, S271A, V270A, R269A, S267A, and D265A was carried out. […] 2-5-DKG Reductase A mutant A272G was characterized in essentially the same manner as in Example 5 except that in order to determine kinetic parameters for the NADPH-dependent reduction of 2,5-DKG by 2,5-DKG reductases, a series of reactions were done with constant saturating concentration of NADPH (200 μM) and varying concentrations of substrate from 0 to 30 mM.

B1: Corynebacterium sp. 2,5-DKG reductase A, wild type (Corynebacterium sp. ATCC 31090) (protein)
chain: MTVPSIVLNDGNSIPQLGYGVFKVPPADTQRAVEEALEVGYRHIDTAAIYGNEEGVGAAIAASGIARDDLFITTKLWNDRHDGDEPAAAIAESLAKLALDQVDLYLVHWPTPAADNYVHAWEKMIELRAAGLTRSIGVSNHLVPHLERIVAATGVVPAVNQIELHPAYQQREITDWAAAHDVKIESWGPLGQGKYDLFGAEPVTAAAAAHGKTPAQAVLRWHLQKGFVVFPKSVRRERLEENLDVFDFDLTDTEIAAIDAMDPGDGSGRVSAHPDEVD
notes: made in house; host or cells: Acetobacter cerinus (ATCC No. 39140)
One may read the Km as the substrate concentration at which the rate is half of its maximum. Broadly, the kcat/Km is the turnover number divided by the Michaelis constant. As for B1, in data set [1], the Km stood at 28 mM, the Vmax is recorded as 7.8 μmoles per minute per milligram of protein and the kcat/Km is 140 M⁻¹ s⁻¹.

B2: Corynebacterium sp. 2,5-DKG reductase A mutant Q192R (Corynebacterium sp. ATCC 31090; Q192R) (protein)
chain: MTVPSIVLNDGNSIPQLGYGVFKVPPADTQRAVEEALEVGYRHIDTAAIYGNEEGVGAAIAASGIARDDLFITTKLWNDRHDGDEPAAAIAESLAKLALDQVDLYLVHWPTPAADNYVHAWEKMIELRAAGLTRSIGVSNHLVPHLERIVAATGVVPAVNQIELHPAYQQREITDWAAAHDVKIESWGPLGRGKYDLFGAEPVTAAAAAHGKTPAQAVLRWHLQKGFVVFPKSVRRERLEENLDVFDFDLTDTEIAAIDAMDPGDGSGRVSAHPDEVD
notes: made in house; host or cells: Acetobacter cerinus
For B2, in data set [1], the Km was 21 mM, the Vmax is 14.0 μmoles per minute per milligram of protein and the catalytic efficiency (kcat/Km) is 335 M⁻¹ s⁻¹.

B3: Corynebacterium sp. 2,5-DKG reductase A mutant F22Y/A272G (Corynebacterium sp. ATCC 31090; A272G/F22Y) (protein)
chain: MTVPSIVLNDGNSIPQLGYGVYKVPPADTQRAVEEALEVGYRHIDTAAIYGNEEGVGAAIAASGIARDDLFITTKLWNDRHDGDEPAAAIAESLAKLALDQVDLYLVHWPTPAADNYVHAWEKMIELRAAGLTRSIGVSNHLVPHLERIVAATGVVPAVNQIELHPAYQQREITDWAAAHDVKIESWGPLGQGKYDLFGAEPVTAAAAAHGKTPAQAVLRWHLQKGFVVFPKSVRRERLEENLDVFDFDLTDTEIAAIDAMDPGDGSGRVSGHPDEVD
notes: made in house
For the protein B3, the Km in data set [2] is 0.00819 mM.

B4: Corynebacterium sp. 2,5-DKG reductase A mutant A272G (Corynebacterium sp. ATCC 31090; A272G) (protein)
chain: MTVPSIVLNDGNSIPQLGYGVFKVPPADTQRAVEEALEVGYRHIDTAAIYGNEEGVGAAIAASGIARDDLFITTKLWNDRHDGDEPAAAIAESLAKLALDQVDLYLVHWPTPAADNYVHAWEKMIELRAAGLTRSIGVSNHLVPHLERIVAATGVVPAVNQIELHPAYQQREITDWAAAHDVKIESWGPLGQGKYDLFGAEPVTAAAAAHGKTPAQAVLRWHLQKGFVVFPKSVRRERLEENLDVFDFDLTDTEIAAIDAMDPGDGSGRVSGHPDEVD
notes: made in house
Usually kcat stands for the number of substrate molecules converted per active site and unit of time at saturation. Take B4: the figures for the Michaelis constant (Km) in data set [2] and in data set [3] were 0.00492 mM and 42.61 ± 12.13 mM, respectively. For the same protein, the kcat in data set [3] is 21.44 ± 4.10 s⁻¹.
